From the domain aggregation screens of Martell et al. (2025)

Assay: soluble fraction after stress (log2 fold change); higher = more stays soluble; pooled small domains, quantitative proteomics
Details: stress: 75 degC
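Note: 20 min heating vs room temperature control held 20 min.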

Row | Sequence | soluble fraction (log2)
1 | HMEQLESAVASRTLIGQAQGVIMERYGLSAPNAFSVLSRISQDSNTKLAEVAQQIVATRRIPG | -0.093
2 | HMEQLNKNIKFDNFLESLNFINKVSEVAEEENHHPDLKFGWGYADITIFTHAIKGLSEGDFVLAAKIDVI | 0.19
3 | HMEQMSLISKKKGERIDKFLGENLGDLSRSYIQKLLKDGLILVNGKKVKANYKLNEGDQIDVEVPDP | 0.327
4 | HMEQMSPYPNPSKGKIQFHNQEPMDIKVFNSLGQIVFEQRILSRAILDLSRLSPGQYIVQAGEQKNIWIK | -1.64
5 | HMEQPPVPSVSITAALGSAVARRLAPHGFQKMPDLVDAYRAGKLAQISGIGGTTLDLIREWLTANARQQ | -0.441
6 | HMEQQEFIVPHDSEGQRLDLFLVSVLGTHSRSQIRKLIVNGHVKLENRAPRPNLPVRAGESVVVSMPEPT | -0.849
7 | HMEQQSIYLENRERMTINQVIDVDAFDEETLWANLKEGAVEISGSGLHIEKLDLAEGVLIVSGIIRAFAYV | -0.856
8 | HMEQQVDYTQFIQDVRQGQIREVDVDRNGVINGIKRSGENFVTVIPGGYDRDLINDLVKQGVNATGEL | 0.25
9 | HMEQVKFFDAKVITTPPNRLKTRYTPAGNLRPEADWLQSGAIVPVYETSGAGWYRIGYQTWASAEWMQRLD | -2.8
10 | HMEQVSDPALLERYAKEVVAASPKAVADYQAGNAKAFQALVGQMMKRTKGKGDPALIREILQKL | 0.0645
11 | HMEQVTMSNFLDKWGTSTKSPNAWYTSLSPMQKAEAKLLKEESGLTWNKWYEKNIYVGDGTN | 0.985
12 | HMERAYGVRVSLRLDDPFRTLLGADWSRTHWFASAEERDAALLEMSRKHEFSRPGDQPALVYEKVQN | -1.26
13 | HMERDVNQLTPRERDILKLIAQGLPNKMIARRLDITESTVKVHVKHMLKKMKLKSRVEAAVWVHQERI | -1.55
14 | HMEREQNILQGREVVERELRRLGLAEAYTVSDIAKALKFDDEEQFLAKVGFGDIQSRQISGAIALMEKN | -0.0753
15 | HMERFLENAIPVLGETGLDIKSATEDFENALIRQALHLSGGNKNRAATLLGLKRTTFVEMLKRKSL | -1.12
16 | HMERFMEFVITDTQQGQRLDVVLTETTEHLGSRSHMQRSIRAGLVSIDGITTTRASTKVSSGQIIRVEPT | -1.42
17 | HMERGEFQKLGRATLEQTLARAGKTLAEVSLKAMLETFAFAAEEDLYEALGRGRVSAAKVGETLFPALKGR | -0.85
18 | HMERKMKNNISDQTTYDTDKILNFNGKGYLNGLVIPNNYQIKEEGYYVFRQVALDGREQILYFTIQDLS | -1.98
19 | HMERLSVSMGDMVVFVRDAVEAFRGLVKEKGITLTFESKVEHFYMNYDHDKVYKVVNNLLSNAVKFT | -0.145

Row | Sequence | soluble fraction (log2)
20 | HMERLTVVPELLKRSLSEAQPLVTSARLRLEVSGGAPEDTSRAIVVGQKPPPGTRVQVGTTVIVTVQIQRP | -0.534
21 | HMERPYNGKQMEYHEGGVEKKETLFVEGGLSRVIQWDESGQKRSEVNISPTGVRREQYWDSSGKAIAKPS | 0.14
22 | HMERQAEAWTNRASALISLGRDEEALEAADRAIELDPRLSKAWIDRSTALSNLGRNDEANEAIQMAMFL | -0.12
23 | HMERQILFTKEDLIEFGLSGGTDSRKRRDVLGHILGIGYSNSKQFLNRLNNFGVTREEFLSAIERIG | -0.816
24 | HMERTVEVVDINDVFSQFLRLYSRERAAGLLSVFKRVEHGLSWQGNPVLLERILSNVFENAIKYAA | 0.149
25 | HMERVIYLLNGREVPAAEIRAAEPEALTVDRFYSSENLPAEYRDRNPELVVAFTAEEPLRHY | 0.512
26 | HMERVNILEKATKDIPNVEVKAFEGLSVNFARENHAQVIVRGLRAVTDFEYELQMAQTNRVLAPDVDTVF | -0.0564
27 | HMERYSVQVGSFRNMRYAERLKQELQGEDFPAYIEKSGEFNRVRVGKGLTLEEATQLEQVLRKSGYQTVIV | -0.705
28 | HMESIGANIRRLRKERNMSQDELARKAFTNRSNINRYESGKMVPSADTTEKIEEALGVPAGTLAQ | -0.214
29 | HMESKDIRYVQLQTVSPEEVLQALALIMPRSDVYVEPTGKLVVLHGSKETLDRAEELILALDNAV | -0.116
30 | HMESKITTAEAAAILNASPQFVRVAMQRGILNIGIAMQMPNSNKWTYNISPKLLGEYSGKNIEYELERLR | -1.65
31 | HMESRTQVYDFYKDLFREKRRPLRAEEMLSALKSQRGIVGVNQYQIIEQHGIVRLSGSGRSALYWDTDLGS | -2.69
32 | HMESSREVSFSEFMKQIDSGRVSSVKLDGETIYVRNSDGTSYKVIQPLGTDLIGVLRKSDIDVQAIKQ | 0.107
33 | HMESYNIVEQVLTKKILSKGNTLAKLSNEFDGLVMLVIRGDEFIIPNGETLLFEKDILVINNGP | -2.68
34 | HMESYTGLAVTEDDDGWSNVRSGNSTSYSILFKIYAGEKFNILSNDGKWSYIDFNGRKGYIHNSIIRKY | -3.82
35 | HMETAADLLAAAKENPARFGILASEGRFGLGYMNDDLLDPDNLVAISREEADDLRGLGVYFHNLD | 0.293
36 | HMETALYVEDLDRAVRFYESVMGLNTMSRGVRLVALDAGEGTVLLLFLRGATTSGASFEGGWIPPH | 0.05
37 | HMETDNEKVRTAFQNGLAAYREQDWDRAEAAFGAVLAEMPEDRPSLVYLERIAHLRKKAPPGAWDGVWI | -0.335
38 | HMETENLSPREREILEYIVKGYSYKMIAADLNIATETVRSHIKKIYKKLQVNSATEAVYKYSN | -1.51
